In patent US20230235075A1 (DYNAMICURE BIOTECHNOLOGY, published 2023):
One block for each binder: values may come before it.

Legend:
[1] = target: T1, Human CD93 on the cell surface (human CD93 expressing CHO cells; HUVEC, U937 and KG1a cells) (human, UniProt Q9NPY3 22-652); assay: FACS, human CD93 expressing CHO cells, serially diluted antibody
T1 construct: whole, on cells; also called hCD93 CHO cells; CHO-hCD93
T1 sequence (looked up): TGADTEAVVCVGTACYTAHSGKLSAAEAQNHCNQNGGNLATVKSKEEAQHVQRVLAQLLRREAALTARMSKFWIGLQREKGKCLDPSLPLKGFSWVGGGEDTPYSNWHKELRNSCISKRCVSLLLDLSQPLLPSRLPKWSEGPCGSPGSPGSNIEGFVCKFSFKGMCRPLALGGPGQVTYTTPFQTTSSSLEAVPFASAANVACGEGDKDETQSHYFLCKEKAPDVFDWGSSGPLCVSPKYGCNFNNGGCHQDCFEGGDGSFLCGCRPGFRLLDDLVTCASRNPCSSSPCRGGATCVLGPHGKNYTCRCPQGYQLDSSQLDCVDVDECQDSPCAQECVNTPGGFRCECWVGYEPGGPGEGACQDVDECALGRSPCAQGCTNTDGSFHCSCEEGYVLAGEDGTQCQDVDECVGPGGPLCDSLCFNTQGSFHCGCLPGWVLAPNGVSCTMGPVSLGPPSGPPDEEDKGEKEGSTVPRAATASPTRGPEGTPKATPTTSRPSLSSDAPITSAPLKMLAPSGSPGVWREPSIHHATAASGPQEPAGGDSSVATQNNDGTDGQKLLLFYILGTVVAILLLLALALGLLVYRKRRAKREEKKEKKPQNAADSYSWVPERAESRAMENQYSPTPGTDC
Description: Binding of anti-CD93 antibodies 7F3 and 16E4 to cell surface expressing human CD93 CHO cells was determined by fluorescence activated cell sorting (FACS) assay. Human CD93 expressing CHO cells were detached by incubation with TrypLE reagents (Thermo Fisher), which preserves the integrity of CD93 on the cell surface. Then the cells were incubated with serially diluted anti-CD93 antibodies for 30 minutes in 4° C. After washing by FACS buffer, the cells were incubated with Alexa Fluor 647 conjugated anti-human IgG (Jackson ImmunoResearch) for 30 minutes in 4° C. After washing by FACS buffer twice, the samples were acquired in NovoCyte Flow Cytometer and analyzed by NovoExpress software.

[2] = target: T1, Human CD93 on the cell surface (human …); assay: summary table, column 'Binding' (assay not given)
[3] = target: T2, Human CD93 recombinant protein (Sino Biological Inc, Catalog #12589-H08H) (human, UniProt Q9NPY3 22-580, biotinylated with EZ-LINK NHS-PEG4 biotin in the Octet assays); assay: BLI (Octet QKe), biotinylated CD93 on streptavidin sensors
T2 construct: also called hCD93; His-tagged human CD93
T2 sequence (looked up): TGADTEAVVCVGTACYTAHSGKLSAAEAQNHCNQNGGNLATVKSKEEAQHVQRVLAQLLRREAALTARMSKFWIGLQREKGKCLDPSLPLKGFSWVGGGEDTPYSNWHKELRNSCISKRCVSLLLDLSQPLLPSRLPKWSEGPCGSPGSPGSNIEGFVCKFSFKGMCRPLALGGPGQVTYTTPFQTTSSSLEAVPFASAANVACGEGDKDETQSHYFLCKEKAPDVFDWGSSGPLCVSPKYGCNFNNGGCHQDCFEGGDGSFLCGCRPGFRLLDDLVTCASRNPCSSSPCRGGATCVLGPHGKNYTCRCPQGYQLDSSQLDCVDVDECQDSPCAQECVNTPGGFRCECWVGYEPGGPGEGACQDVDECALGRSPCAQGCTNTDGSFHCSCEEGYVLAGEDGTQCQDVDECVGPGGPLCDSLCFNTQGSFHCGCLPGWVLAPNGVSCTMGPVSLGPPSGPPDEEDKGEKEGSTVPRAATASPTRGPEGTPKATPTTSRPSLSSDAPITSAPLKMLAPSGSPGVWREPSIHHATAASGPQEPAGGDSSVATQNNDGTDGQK

[4] = target: T2, Human CD93 recombinant protein (Sino …); assay: ELISA, His-tagged human CD93 coated at 1 µg/mL
Description: 17B10 antibody produced by hybridoma (17B10-Hyb in FIG. 33) was compared to recombinant parental 17B10-hFc (17B10-hIgG1 in FIG. 33) and humanized 17B10-mFc (h17B10-H3L3 in FIG. 33) to determine the binding to human CD93. His-tagged human CD93 was coated onto a 96 well plate at 1 μg/mL in 1×PBS overnight at 4° C. The plate was washed with ELISA wash buffer (Boston BioProduct, Inc.) and the wells were blocked with ELISA blocking buffer for 1 hour at 37° C. Purified 17B10 antibodies were serially diluted in ELISA blocking buffer (Boston BioProduct, Inc.) and incubated on the receptor for 1 hour at 37° C. The plate was washed with ELISA wash Buffer. HRP conjugated Anti-mouse Fc was diluted in ELISA blocking buffer and added to the wells containing the hybridoma produced 17B10. HRP conjugated anti-human Fc was added to the well containing the recombinant 17B10 antibodies for 1 hour at 37° C. The plate was washed with ELISA wash Buffer. HRP substrate was added for indirect detection of the antibodies binding to CD93.

[5] = target: T1, Human CD93 on the cell surface (human …); assay: flow cytometry, primary HUVEC cells, with and without human serum
Description: Recombinant parental anti-CD93 antibodies were evaluated for their ability to bind to HUVEC cells in the presence or absence of human serum. The 16E4, 7F3, 16A1, and 17B10 sequences obtained from the hybridoma cells were expressed recombinantly with a human CH1 domain and mouse IgG1 CH2 and CH3 Fc domains. Antibodies were purified using Protein G Sepharose. The resulting antibodies were tested for its binding capacity to a variety of cells that express CD93. […] Cells were quenched with media then counted. Cells were resuspended in FACS buffer (ice cold PBS with 0.5% BSA) and human serum was added to 20% (10% final volume) and put on ice for approximately 20 minutes. 5×10⁴ cells were seeded per well in 100 μL media and incubated with serial diluted anti-CD93 antibodies in 100 μL on ice for 2 hours. Cells were then washed by spinning cells at 1200 rpm for 5 min. Media was discarded and cells were resuspended in 200 μL ice cold FACS buffer. The wash step was repeated and cells were resuspended in 100 μL of secondary antibody, AlexaFluor647 conjugated anti-human IgG or anti-mouse IgG antibodies (Jackson ImmunoResearch), diluted 1:500 in FACS buffer. Plates were blocked from light and incubated 1 hour at 4° C. […] Samples were stored at 4° C. covered in foil, then were acquired in NovoCyte Flow Cytometer and analyzed by NovoExpress software.

[6] = target: T1, Human CD93 on the cell surface (human …); assay: FACS, CHO cells overexpressing human CD93

B1: 16E4-hIgG1 (antibody, V domains shown)
VH: QVQLQQPGAELVKPGASVKLSCKASGYTFTSYWMHWVKQRPGQGLEWIGEIDPSASYTYYNQKFKGKATLTVDKSSSTAYMQLSSLTSEDSAVYYCARSVYYGNKYFDVWGAGTTVTVSS
VL: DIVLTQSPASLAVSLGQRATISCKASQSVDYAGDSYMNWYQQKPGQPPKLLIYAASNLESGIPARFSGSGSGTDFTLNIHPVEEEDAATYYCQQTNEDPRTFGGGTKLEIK
notes: the same paragraph also calls it 'humanized'; also called recombinant 16E4; recombinant chimeric 16E4
- EC50 [1]: 0.24 nM

B4: 17B10 (hybridoma) (antibody, V domains shown)
VH: QVQLQQSGPELVKPGASVKISCKASGYAFSSYWLNWVKQRPGKGLEWFGRIYPGDGDTDYNGKFKGKATLTADKSSSTAYMQLRSLTSEDSAVYFCVRGDGYWAMDYWGQGTSVTVSS
VL: DIVMTQAAFSNPVTLGTSASISCRFSKSLLHSNGITYLYWYLQKPGQSPQLLIYQMSNLASGVPDRFSSSGSGTDFTLRISRVEAEDVGVYYCAQNLELPWTFGGGTKLEIK
notes: Mouse hybridoma monoclonal antibody, purified over Protein G
- binding result [2]: binds
- binding result [4]: binds

B6: recombinant parental 17B10-hFc (antibody, human IgG1, V domains shown)
VH: QVQLQQSGPELVKPGASVKISCKASGYAFSSYWLNWVKQRPGKGLEWFGRIYPGDGDTDYNGKFKGKATLTADKSSSTAYMQLRSLTSEDSAVYFCVRGDGYWAMDYWGQGTSVTVSS
VL: DIVMTQAAFSNPVTLGTSASISCRFSKSLLHSNGITYLYWYLQKPGQSPQLLIYQMSNLASGVPDRFSSSGSGTDFTLRISRVEAEDVGVYYCAQNLELPWTFGGGTKLEIK
notes: also called 17B10-hIgG1; recombinant parental 17B10 with the human Fc
- binding result [4]: binds

B7: Humanized 17B10 (VH3VL3, i.e., H3L3) (antibody, mouse IgG1, V domains shown)
VH: QVQLVQSGPEVKKPGESLKISCKASGYAFSSYWLNWVRQMPGKGLEWMGRIYPGDGDTDYNGKFKGQVTISADKSSGTAYLQLSSLKASDTAVYFCVRGDGYWAMDYWGQGTLVTVSS
VL: DIVMTQSPDSLAVSLGERATINCRFSKSLLHSNGITYLYWYQQKPGQPPKLLIYQMSNLASGVPDRFSGSGSGTDFTLTISSLQAEDVAVYYCAQNLELPWTFGGGTKLEIK
notes: also called h17B10-H3L3; humanized 17B10-mFc
- binding result [6]: binds
- binding result [4]: binds

Continued, values first:

- EC50 [1]: 0.4 nM
B2: 7F3-hIgG1 (antibody, V domains shown)
VH: QVQLQQSGADLVRPGASVKLSCKASGYTFTDYEMHWVKQTPVYGLEWIGGIDPETGDTAYNQNFKGKATLTADKSSSAAYMELRSLTSEDSAVYYCTNYGNLYYYAMDYWGQGTSVTVSS
VL: ENVLTQSPAIMSASPGEKVTMTCRASSSVSSSYLHWYQQKSGASPKLWIYSTSNLAFGVPARFSGSGSGTSYSLTISSVEAEDAATYYCQQYSGYPLTFGSGTKLEIK
notes: the same paragraph also calls it 'humanized'; also called recombinant 7F3 antibody; recombinant chimeric 7F3

- binding result [2]: binds
- binding result [3]: binds
B3: 10B1 (antibody, V domains shown)
VH: QVQLKQSGPGLVQPSQSLSITCTVSDFSLSSFGVNWVRQPPGKGLEWLGVIWSGGSTDYNVAFISRLSISKDNSKSQVFFKMNNLQADDTAIYYCARNWRYDGYFYAMDYWGQGTSVTVSS
VL: DIVMTQSQKFMSTSTGDRVSVTCKASQNVGTNVAWYQQKPGQSPKALIYSASYRFIGVPDRFTGSGSGTDFTLTITNVQSEDLAEYFCQQYNRNPITFGSGTKLEIK
notes: Mouse hybridoma monoclonal antibody; also called 10B1 mAb

- binding result [5]: binds
B5: Recombinant parental 17B10 (human CH1 domain, mouse IgG1 CH2 and CH3 Fc domains) (antibody, V domains shown)
VH: QVQLQQSGPELVKPGASVKISCKASGYAFSSYWLNWVKQRPGKGLEWFGRIYPGDGDTDYNGKFKGKATLTADKSSSTAYMQLRSLTSEDSAVYFCVRGDGYWAMDYWGQGTSVTVSS
VL: DIVMTQAAFSNPVTLGTSASISCRFSKSLLHSNGITYLYWYLQKPGQSPQLLIYQMSNLASGVPDRFSSSGSGTDFTLRISRVEAEDVGVYYCAQNLELPWTFGGGTKLEIK
